Measurements published in patent US20220280615A1.

Biological target: Human IgG (polyclonal, Innovative Research) (human)
Assay: depot trapping: polypeptide mixed with fluorescein-labeled human IgG (1 mg/mL), 37 °C, centrifuged, pellet fluorescence; molar ratio 8 or higher

| percent of IgG in depots | Binder |
| --- | --- |
| 55% | iTEP28-IBD (designed binder) GVLPGVGGVLPGVGGVLPGVGGVLPGVGGVLPGVGGVLPGVGGVLPGVGGVLPGVGGVLPGVGGVLPGVGGVLPGVGGVLPGVGGVLPGVGGVLPGVGGVLPGVGGVLPGVGGVLPGVGGVLPGVGGVLPGVGGVLPGVGGVLPGVGGVLPGVGGVLPGVGGVLPGVGGVLPGVGGVLPGVGGVLPGVGGVLPGVGGGGGSTTYKLVINGKTLKGETTTKAVDAETAEKAFKQYANDNGVDGVWTYDDATKTFTVTE |
| 90% | iTEP56-IBD (designed binder) GVLPGVGGVLPGVGGVLPGVGGVLPGVGGVLPGVGGVLPGVGGVLPGVGGVLPGVGGVLPGVGGVLPGVGGVLPGVGGVLPGVGGVLPGVGGVLPGVGGVLPGVGGVLPGVGGVLPGVGGVLPGVGGVLPGVGGVLPGVGGVLPGVGGVLPGVGGVLPGVGGVLPGVGGVLPGVGGVLPGVGGVLPGVGGVLPGVGGVLPGVGGVLPGVGGVLPGVGGVLPGVGGVLPGVGGVLPGVGGVLPGVGGVLPGVGGVLPGVGGVLPGVGGVLPGVGGVLPGVGGVLPGVGGVLPGVGGVLPGVGGVLPGVGGVLPGVGGVLPGVGGVLPGVGGVLPGVGGVLPGVGGVLPGVGGVLPGVGGVLPGVGGVLPGVGGVLPGVGGVLPGVGGVLPGVGGVLPGVGGGGGSTTYKLVINGKTLKGETTTKAVDAETAEKAFKQYANDNGVDGVWTYDDATKTFTVTE |
| 90% | iTEP112-IBD (designed binder) GVLPGVGGVLPGVGGVLPGVGGVLPGVGGVLPGVGGVLPGVGGVLPGVGGVLPGVGGVLPGVGGVLPGVGGVLPGVGGVLPGVGGVLPGVGGVLPGVGGVLPGVGGVLPGVGGVLPGVGGVLPGVGGVLPGVGGVLPGVGGVLPGVGGVLPGVGGVLPGVGGVLPGVGGVLPGVGGVLPGVGGVLPGVGGVLPGVGGVLPGVGGVLPGVGGVLPGVGGVLPGVGGVLPGVGGVLPGVGGVLPGVGGVLPGVGGVLPGVGGVLPGVGGVLPGVGGVLPGVGGVLPGVGGVLPGVGGVLPGVGGVLPGVGGVLPGVGGVLPGVGGVLPGVGGVLPGVGGVLPGVGGVLPGVGGVLPGVGGVLPGVGGVLPGVGGVLPGVGGVLPGVGGVLPGVGGVLPGVGGVLPGVGGVLPGVGGVLPGVGGVLPGVGGVLPGVGGVLPGVGGVLPGVGGVLPGVGGVLPGVGGVLPGVGGVLPGVGGVLPGVGGVLPGVGGVLPGVGGVLPGVGGVLPGVGGVLPGVGGVLPGVGGVLPGVGGVLPGVGGVLPGVGGVLPGVGGVLPGVGGVLPGVGGVLPGVGGVLPGVGGVLPGVGGVLPGVGGVLPGVGGVLPGVGGVLPGVGGVLPGVGGVLPGVGGVLPGVGGVLPGVGGVLPGVGGVLPGVGGVLPGVGGVLPGVGGVLPGVGGVLPGVGGVLPGVGGVLPGVGGVLPGVGGVLPGVGGVLPGVGGVLPGVGGVLPGVGGVLPGVGGVLPGVGGVLPGVGGVLPGVGGVLPGVGGVLPGVGGVLPGVGGGGGSTTYKLVINGKTLKGETTTKAVDAETAEKAFKQYANDNGVDGVWTYDDATKTFTVTE |
